Numbered stars: 1 amine (or outer) side, 2 acyl side, 3 side chain; on linkers, the order of the positions; unused ones are H or OH. Square brackets hold non-standard residues; d marks the D form. Side chains are listed from the residue outwards. Ends that are not written are not given here. * marks the point of attachment. γGlu = O=C(O)[C@H](CCC(=O)[*:2])N[*:1]; Palmitoyl = CCCCCCCCCCCCCCCC(=O)*; AEEA = NCCOCCOCC(=O)O; Aib = CC(C)(N)C(=O)O
T1: human GIP receptor (human, UniProt P48546 22-466)
T1 sequence (looked up): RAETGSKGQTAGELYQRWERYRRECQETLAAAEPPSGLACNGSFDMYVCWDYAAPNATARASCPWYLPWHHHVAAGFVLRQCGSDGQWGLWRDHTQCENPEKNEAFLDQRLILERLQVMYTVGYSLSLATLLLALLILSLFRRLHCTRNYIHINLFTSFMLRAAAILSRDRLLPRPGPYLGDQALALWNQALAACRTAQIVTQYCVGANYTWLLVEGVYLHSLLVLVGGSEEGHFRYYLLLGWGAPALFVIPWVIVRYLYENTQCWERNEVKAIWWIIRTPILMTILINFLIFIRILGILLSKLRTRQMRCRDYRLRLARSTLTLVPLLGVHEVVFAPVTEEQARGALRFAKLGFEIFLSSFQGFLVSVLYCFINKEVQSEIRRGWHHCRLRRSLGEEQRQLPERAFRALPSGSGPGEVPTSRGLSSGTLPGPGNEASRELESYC

B1: SEQ ID NO: 14 (peptide)
peptide: H[Aib]HGTFTSDLSKLK([γGlu-γGlu-AEEA-Palmitoyl])EEQRQKEFIEWLKAGGHPS[Aib]KPPPK-NH2
modifications: N-terminus assumed
SMILES: CCCCCCCCCCCCCCCC(=O)NCCOCCOCC(=O)N[C@@H](CCC(=O)N[C@@H](CCC(=O)NCCCC[C@H](NC(=O)[C@H](CC(C)C)NC(=O)[C@H](CCCCN)NC(=O)[C@H](CO)NC(=O)[C@H](CC(C)C)NC(=O)[C@H](CC(=O)O)NC(=O)[C@H](CO)NC(=O)[C@@H](NC(=O)[C@H](Cc1ccccc1)NC(=O)[C@@H](NC(=O)CNC(=O)[C@H](Cc1c[nH]cn1)NC(=O)C(C)(C)NC(=O)[C@@H](N)Cc1c[nH]cn1)[C@@H](C)O)[C@@H](C)O)C(=O)N[C@@H](CCC(=O)O)C(=O)N[C@@H](CCC(=O)O)C(=O)N[C@@H](CCC(N)=O)C(=O)N[C@@H](CCCNC(=N)N)C(=O)N[C@@H](CCC(N)=O)C(=O)N[C@@H](CCCCN)C(=O)N[C@@H](CCC(=O)O)C(=O)N[C@@H](Cc1ccccc1)C(=O)N[C@H](C(=O)N[C@@H](CCC(=O)O)C(=O)N[C@@H](Cc1c[nH]c2ccccc12)C(=O)N[C@@H](CC(C)C)C(=O)N[C@@H](CCCCN)C(=O)N[C@@H](C)C(=O)NCC(=O)NCC(=O)N[C@@H](Cc1c[nH]cn1)C(=O)N1CCC[C@H]1C(=O)N[C@@H](CO)C(=O)NC(C)(C)C(=O)N[C@@H](CCCCN)C(=O)N1CCC[C@H]1C(=O)N1CCC[C@H]1C(=O)N1CCC[C@H]1C(=O)N[C@@H](CCCCN)C(N)=O)[C@@H](C)CC)C(=O)O)C(=O)O
B2: SEQ ID NO: 15 (peptide)
peptide: H[Aib]HGTFTSDLSKLK([γGlu-γGlu-AEEA-Palmitoyl])EEQRQKEFIEWLKA[dA]GHPS[Aib]KPPPK-NH2
modifications: N-terminus assumed
SMILES: CCCCCCCCCCCCCCCC(=O)NCCOCCOCC(=O)N[C@@H](CCC(=O)N[C@@H](CCC(=O)NCCCC[C@H](NC(=O)[C@H](CC(C)C)NC(=O)[C@H](CCCCN)NC(=O)[C@H](CO)NC(=O)[C@H](CC(C)C)NC(=O)[C@H](CC(=O)O)NC(=O)[C@H](CO)NC(=O)[C@@H](NC(=O)[C@H](Cc1ccccc1)NC(=O)[C@@H](NC(=O)CNC(=O)[C@H](Cc1c[nH]cn1)NC(=O)C(C)(C)NC(=O)[C@@H](N)Cc1c[nH]cn1)[C@@H](C)O)[C@@H](C)O)C(=O)N[C@@H](CCC(=O)O)C(=O)N[C@@H](CCC(=O)O)C(=O)N[C@@H](CCC(N)=O)C(=O)N[C@@H](CCCNC(=N)N)C(=O)N[C@@H](CCC(N)=O)C(=O)N[C@@H](CCCCN)C(=O)N[C@@H](CCC(=O)O)C(=O)N[C@@H](Cc1ccccc1)C(=O)N[C@H](C(=O)N[C@@H](CCC(=O)O)C(=O)N[C@@H](Cc1c[nH]c2ccccc12)C(=O)N[C@@H](CC(C)C)C(=O)N[C@@H](CCCCN)C(=O)N[C@@H](C)C(=O)N[C@H](C)C(=O)NCC(=O)N[C@@H](Cc1c[nH]cn1)C(=O)N1CCC[C@H]1C(=O)N[C@@H](CO)C(=O)NC(C)(C)C(=O)N[C@@H](CCCCN)C(=O)N1CCC[C@H]1C(=O)N1CCC[C@H]1C(=O)N1CCC[C@H]1C(=O)N[C@@H](CCCCN)C(N)=O)[C@@H](C)CC)C(=O)O)C(=O)O

Key:
Experiment in all cases: cell-based or functional assay
human glucagon receptor = human glucagon receptor (human, UniProt P47871 26-477)
human GLP-1 receptor = human GLP-1 receptor (human, UniProt P43220 24-463)
human GIP receptor = target: T1, human GIP receptor

Sequence of human glucagon receptor (P47871 26-477): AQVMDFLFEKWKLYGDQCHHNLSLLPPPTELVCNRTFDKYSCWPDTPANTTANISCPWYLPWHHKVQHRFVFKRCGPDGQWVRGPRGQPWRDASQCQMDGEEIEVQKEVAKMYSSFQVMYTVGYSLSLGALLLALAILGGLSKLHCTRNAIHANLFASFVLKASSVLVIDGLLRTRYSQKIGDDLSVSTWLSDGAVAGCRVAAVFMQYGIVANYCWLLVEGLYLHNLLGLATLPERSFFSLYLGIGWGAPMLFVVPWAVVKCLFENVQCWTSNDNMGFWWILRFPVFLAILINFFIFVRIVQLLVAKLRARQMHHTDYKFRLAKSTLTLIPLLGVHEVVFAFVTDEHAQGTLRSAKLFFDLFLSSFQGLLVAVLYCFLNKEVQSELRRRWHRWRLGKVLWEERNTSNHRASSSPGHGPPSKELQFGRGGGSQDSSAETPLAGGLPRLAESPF

Binder	EC50 hGlucagon R (cAMP formation) (human glucagon receptor)	EC50 hGLP-1R (cAMP formation) (human GLP-1 receptor)	EC50 hGIP R (cAMP formation) (human GIP receptor)
B1	3.4 pM	0.9 pM	1.2 pM
B2	4.5 pM	1.1 pM	1.8 pM

— patent US20180155406A1 (Sanofi, published 2018)
